Measurements from US20230227548A1 (published 2023).
Changes are numbered by the printed parent chain. Names and notes keep the numbering of the source.

Experiments:
[1] = molecular target: T1, human GPRC5D (human, UniProt Q9NZD1 1-345); experiment: cell-based or functional assay
[2] = molecular target: T1, human GPRC5D; experiment: cell-based or functional assay; remark: listed apart in the source
[3] = molecular target: T1, human GPRC5D; experiment: cell-based or functional assay; remark: listed apart in the source
[4] = molecular target: T1, human GPRC5D; experiment: FACS, MM patient MM303BM bone marrow MNCs (plasma cells)
[5] = molecular target: T1, human GPRC5D; experiment: FACS, MM patient MM305BM bone marrow MNCs (plasma cells)
[6] = molecular target: T2, cyno GPRC5D (cyno, UniProt Q9NZD1 1-343 (human entry)); experiment: cell-based or functional assay
T2 chain: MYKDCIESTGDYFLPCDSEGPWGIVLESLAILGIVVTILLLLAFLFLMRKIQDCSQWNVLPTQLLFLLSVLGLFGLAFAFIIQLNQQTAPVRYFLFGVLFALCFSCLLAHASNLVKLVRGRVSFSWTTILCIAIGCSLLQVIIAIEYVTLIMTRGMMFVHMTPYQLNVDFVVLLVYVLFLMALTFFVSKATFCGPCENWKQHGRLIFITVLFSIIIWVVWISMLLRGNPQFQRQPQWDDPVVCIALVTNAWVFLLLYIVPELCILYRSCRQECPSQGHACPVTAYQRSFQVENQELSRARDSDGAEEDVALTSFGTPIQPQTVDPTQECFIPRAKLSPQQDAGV

[7] = molecular target: T2, cyno GPRC5D; experiment: cell-based or functional assay
[8] = molecular target: T2, cyno GPRC5D; experiment: FACS, cyno GPRC5D cells, 1 ug/ml
[9] = molecular target: T1, human GPRC5D; experiment: FACS, human GPRC5D cells

T1 sequence (Q9NZD1 whole entry): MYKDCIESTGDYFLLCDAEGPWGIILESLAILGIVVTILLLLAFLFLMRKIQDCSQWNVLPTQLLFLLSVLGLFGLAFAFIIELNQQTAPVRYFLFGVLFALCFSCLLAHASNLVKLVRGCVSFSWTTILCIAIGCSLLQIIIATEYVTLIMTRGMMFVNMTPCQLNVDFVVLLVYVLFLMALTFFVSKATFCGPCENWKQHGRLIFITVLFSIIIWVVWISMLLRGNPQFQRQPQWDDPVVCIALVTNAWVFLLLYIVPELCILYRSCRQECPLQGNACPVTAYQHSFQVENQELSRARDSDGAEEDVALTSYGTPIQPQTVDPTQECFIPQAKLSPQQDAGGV

B1: GCDB32 (bispecific antibody, IgG4, V domains shown)
VH 1: EVQLVESGGGLVQPGGSLRLSCAASGFTFNTYAMNWVRQAPGKGLEWVARIRSKYNNYATYYAASVKGRFTISRDDSKNSLYLQMNSLKTEDTAVYYCARHGNFGNSYVSWFAYWGQGTLVTVSS
VL 1: QTVVTQEPSLTVSPGGTVTLTCRSSTGAVTTSNYANWVQQKPGQAPRGLIGGTNKRAPGTPARFSGSLLGGKAALTLSGVQPEDEAEYYCALWYSNLWVFGGGTKLTVL
VH 2: not shown
VL 2: not shown
notes: IgG4-PAA by Fab arm exchange; first VH/VL = CD3B219 arm (IgG4 S228P, L234A, L235A, F405L, R409K); also called GC5B81 x CD3B219
T-cell mediated cytotoxicity EC50, H929 (n = 5) [1]: 0.39 nM
T-cell mediated cytotoxicity EC50, MM1R (n = 3) [1]: 0.12 nM
T-cell redirection cytotoxicity EC50, human GPRC5D HEK cells [2]: 0.04 nM
T-cell mediated cytotoxicity EC50, H929 cells [3]: 0.45 nM
T-cell mediated cytotoxicity EC50, LP-1 [3]: 1.02 nM
T-cell mediated cytotoxicity EC50, MM1R [3]: 0.04 nM
T-cell mediated cytotoxicity EC50, OPM2 [3]: 0.98 nM
EC50 [4]: 16.1 nM
EC50 [5]: 70.4 nM

B2: GCDB40 (bispecific antibody, V domains shown)
VH 1: B1 VH 1
VL 1: B1 VL 1
VH 2: EVQLLESGGGLVQPGGSLRLSCAASGFTFSDYGMHWVRQAPGKGLEWVSAIKYSGGSTYYADSVKGRFTISRDNSKNTLYLQMNSLRAEDTAVYYCAKRAESGPGLDYWGQGTLVTVSS
VL 2: not shown
T-cell mediated cytotoxicity EC50, H929 (n = 5) [1]: 1.2 nM
T-cell mediated cytotoxicity EC50, MM1R (n = 3) [1]: 0.52 nM

B3: GCDB41 (bispecific antibody, V domains shown)
VH 1: B1 VH 1
VL 1: B1 VL 1
VH 2: QVQLVQSGAEVKKPGSSVKVSCKASGGTFSSYGISWVRQAPGQGLEWMGGIIPIFGNINYAQKFQGRVTITADESTSTAYMELSSLRSEDTAVYYCARVSRRFKRFAYYFDYWGQGTLVTVSS
VL 2: not shown
T-cell mediated cytotoxicity EC50, MM1R (n = 3) [1]: 2.58 nM

B4: GCDB43 (bispecific antibody, V domains shown)
VH 1: B1 VH 1
VL 1: B1 VL 1
VH 2: not shown
VL 2: not shown
T-cell mediated cytotoxicity EC50, H929 (n = 5) [1]: 0.36 nM
T-cell mediated cytotoxicity EC50, MM1R (n = 3) [1]: 0.21 nM

B5: GCDB53 (bispecific antibody, IgG4, V domains shown)
VH 1: B1 VH 1
VL 1: B1 VL 1
VH 2: not shown
VL 2: not shown
notes: IgG4-PAA; first VH/VL = CD3B219 arm (adds F405L, R409K), second = GC5B465 arm; also called GC5B465 x CD3B219
T-cell redirection cytotoxicity EC50, human GPRC5D HEK cells [2]: 0.08 nM
T-cell redirection cytotoxicity EC50, cyno GPRC5D HEK cells [6]: 0.36 nM
T-cell mediated cytotoxicity EC50, H929 cells [3]: 0.69 nM
T-cell mediated cytotoxicity EC50, LP-1 [3]: 1.58 nM
T-cell mediated cytotoxicity EC50, MM1R [3]: 0.28 nM
T-cell mediated cytotoxicity EC50, OPM2 [3]: 2.83 nM
EC50 [4]: 3.98 nM
EC50 [5]: 10.2 nM

B6: GCDB44 (bispecific antibody, V domains shown)
VH 1: B1 VH 1
VL 1: B1 VL 1
VH 2: not shown
VL 2: EIVLTQSPATLSLSPGERATLSCRASQSVSSYLAWYQQKPGQAPRLLIYDASNRATGIPARFSGSGSGTDFTLTISSLEPEDFAVYYCQQRSNWPLTFGQGTKVEIK
T-cell mediated cytotoxicity EC50, H929 (n = 5) [1]: 10.3 nM
T-cell mediated cytotoxicity EC50, MM1R (n = 3) [1]: 4.41 nM

B7: GCDB45 (bispecific antibody, V domains shown)
VH 1: B1 VH 1
VL 1: B1 VL 1
VH 2: EVQLVQSGAEVKKPGESLKISCKGSGYSFTSYWIGWVRQMPGKGLEWMGIIYPGDSDTRYSPSFQGQVTISADKSISTAYLQWSSLKASDTAMYYCARIGFYGRSFRIFDYWGQGTLVTVSS
VL 2: B6 VL 2
T-cell mediated cytotoxicity EC50, H929 (n = 5) [1]: 2.25 nM
T-cell mediated cytotoxicity EC50, MM1R (n = 3) [1]: 0.91 nM
T cell mediated target cell killing, Cyno GPRC5D EC50 [7]: 2.82 nM

B8: GCDB35 (bispecific antibody, V domains shown)
VH 1: B1 VH 1
VL 1: B1 VL 1
VH 2: EVQLVQSGAEVKKPGESLKISCKGSGYSFTSYWIGWVRQMPGKGLEWMGIIYPGDSDTRYSPSFQGQVTISADKSISTAYLQWSSLKASDTAMYYCARVYSFGGRHKALFDYWGQGTLVTVSS
VL 2: B6 VL 2
T-cell mediated cytotoxicity EC50, H929 (n = 5) [1]: 1.39 nM
T-cell mediated cytotoxicity EC50, MM1R (n = 3) [1]: 0.74 nM

B9: GCDB61 (bispecific antibody, IgG4, V domains shown)
VH 1: B1 VH 1
VL 1: B1 VL 1
VH 2: B8 VH 2 with W33F, D55K
VL 2: B6 VL 2
notes: IgG4-PAA; first VH/VL = CD3B219 arm (adds F405L, R409K), second = GC5B483 arm; also called GC5B483 x CD3B219
T-cell redirection cytotoxicity EC50, human GPRC5D HEK cells [2]: 0.03 nM
T-cell redirection cytotoxicity EC50, cyno GPRC5D HEK cells [6]: 1.22 nM
T-cell mediated cytotoxicity EC50, H929 cells [3]: 0.39 nM
T-cell mediated cytotoxicity EC50, LP-1 [3]: 1.67 nM
T-cell mediated cytotoxicity EC50, MM1R [3]: 0.06 nM
T-cell mediated cytotoxicity EC50, OPM2 [3]: 1.46 nM
EC50 [4]: 5.53 nM
EC50 [5]: 6.93 nM

B10: GCDB72 (bispecific antibody, IgG4, V domains shown)
VH 1: B1 VH 1
VL 1: B1 VL 1
VH 2: QVQLVQSGAEVKKPGASVKVSCKASGYSFTGYTMNWVRQAPGQGLEWMGLINPYNSDTNYAQKLQGRVTMTTDTSTSTAYMELRSLRSDDTAVYYCARVALRVALDYWGQGTLVTVSS
VL 2: DIQMTQSPSSLSASVGDRVTITCKASQNVATHVGWYQQKPGKAPKRLIYSASYRYSGVPSRFSGSGSGTEFTLTISNLQPEDFATYYCQQYNRYPYTFGQGTKLEIK
T-cell redirection cytotoxicity EC50, cyno GPRC5D HEK cells [6]: 3.41 nM

B11: GC5B163 (antibody, V domains shown)
VH: B8 VH 2
VL: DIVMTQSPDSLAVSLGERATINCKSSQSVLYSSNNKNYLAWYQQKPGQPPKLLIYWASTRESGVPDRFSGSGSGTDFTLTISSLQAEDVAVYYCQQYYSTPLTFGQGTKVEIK
MFI [8]: 22000

B12: GC5B540 (antibody, V domains shown)
VH: QVTLKESGPVLVKPTETLTLTCTVSGFSLTSYNVHWIRQPPGKALEWLAVIWAGGSTNYNSALMSRLTISKDTSKSQVVLTMTNMRAEDTATYYCARDGIRLRFAYWGQGTLVTVSS
VL: EIVMTQSPATLSVSPGERATLSCKASQNVATHVGWYQQKPGQAPRLLIYSASYRYSGIPARFSGSGSGTEFTLTISSLQSEDFAVYYCQQYNRYPYTFGQGTKLEIK
notes: HFA of GC5B396: GC5H240 + GC5L58; IgG4
binding result [9]: binds

B13: GC5B252 (antibody, V domains shown)
VH: B3 VH 2
VL: B6 VL 2
MFI [8]: 63300
